Reference: patent US20210340548A1

Columns and labels:
Test in all cases: cell-based or functional assay
[1] = molecular target: p65 AD-Cry2 PHR (human; Arabidopsis thaliana) (UniProt Q04206)
[2] = molecular target: p65 AD-Cry2 535 (L348F) (human; Arabidopsis thaliana) (UniProt Q04206)
[3] = molecular target: Cry2 PHR-p65 AD (Arabidopsis thaliana; human) (UniProt Q96524)
[4] = molecular target: Cry2 PHR (L348F)-p65 AD (Arabidopsis thaliana; human) (UniProt Q96524)
[5] = molecular target: p65 AD-Cry2 PHR (L348F) (human; Arabidopsis thaliana) (UniProt Q04206)
[6] = molecular target: Cry2 PHR (L348F)-p65 AD-NLSx2
[7] = molecular target: p65 AD-Cry2 535 (human; Arabidopsis thaliana) (UniProt Q04206)
[8] = molecular target: NLSx2-p65 AD-Cry2 PHR (human; Arabidopsis thaliana)
[9] = molecular target: NLSx2-p65 AD-Cry2 PHR (L348F) (human; Arabidopsis thaliana)
[10] = molecular target: Cry2 PHR-p65 AD-NLSx2 (Arabidopsis thaliana; human)

Substance	Average of the Light/Dark ratio [1]	Light/Dark [1]	Ub-ELuc luciferase, Dark [1] [relative]	Ub-ELuc luciferase, Light [1] [relative]	Average of the Light/Dark ratio [2]	Light/Dark [2]	Ub-ELuc luciferase, Dark [2] [relative]	Ub-ELuc luciferase, Light [2] [relative]	Average of the Light/Dark ratio [3]	Light/Dark [3]	Ub-ELuc luciferase, Dark [3] [relative]	Ub-ELuc luciferase, Light [3] [relative]	Average of the Light/Dark ratio [4]	Light/Dark [4]	Ub-ELuc luciferase, Dark [4] [relative]	Ub-ELuc luciferase, Light [4] [relative]	Average of the Light/Dark ratio [5]	Light/Dark [5]	Ub-ELuc luciferase, Dark [5] [relative]	Ub-ELuc luciferase, Light [5] [relative]	also measured
TetR (I194T, 1-206)-SPKKK-CIB1 full no NLS	1.5	2	36.2	65.2	2	2.7	9.3	23.9	1.4	2	3	5.4	1.2	1.5	4.8	7.2	1.4	1.6	33	47.9	Average of the Light/Dark ratio [6]: 0.9; Light/Dark [6]: 1.2; Ub-ELuc luciferase, Dark [6]: 11.3 relative; Ub-ELuc luciferase, Light [6]: 12.4 relative; Average of the Light/Dark ratio [7]: 2; Light/Dark [7]: 3.3; Ub-ELuc luciferase, Dark [7]: 10.4 relative; Ub-ELuc luciferase, Light [7]: 31.8 relative; Average of the Light/Dark ratio [8]: 1.6; Light/Dark [8]: 2.2; Ub-ELuc luciferase, Dark [8]: 56 relative; Ub-ELuc luciferase, Light [8]: 109 relative; Average of the Light/Dark ratio [9]: 1.4; Light/Dark [9]: 1.9; Ub-ELuc luciferase, Dark [9]: 50.2 relative; Ub-ELuc luciferase, Light [9]: 86.8 relative; Average of the Light/Dark ratio [10]: 0.9; Light/Dark [10]: 0.9; Ub-ELuc luciferase, Dark [10]: 30.1 relative; Ub-ELuc luciferase, Light [10]: 25.2 relative
TetR (I194T, 1-206)-SPKKK-CIB1 full	1.6	1.6	13.8	20.7	2	2.3	4.8	10.5	1.5	1.7	2.4	4.1	1.6	1.6	2.7	4.3	1.7	2.2	8.3	17.2	Average of the Light/Dark ratio [6]: 1; Light/Dark [6]: 1.4; Ub-ELuc luciferase, Dark [6]: 5.1 relative; Ub-ELuc luciferase, Light [6]: 6.8 relative; Average of the Light/Dark ratio [7]: 2.1; Light/Dark [7]: 2.1; Ub-ELuc luciferase, Dark [7]: 4.3 relative; Ub-ELuc luciferase, Light [7]: 8.7 relative; Average of the Light/Dark ratio [8]: 1.9; Light/Dark [8]: 2.4; Ub-ELuc luciferase, Dark [8]: 21.9 relative; Ub-ELuc luciferase, Light [8]: 50.9 relative; Average of the Light/Dark ratio [9]: 1.7; Light/Dark [9]: 1.8; Ub-ELuc luciferase, Dark [9]: 19.3 relative; Ub-ELuc luciferase, Light [9]: 34.3 relative; Average of the Light/Dark ratio [10]: 0.9; Light/Dark [10]: 0.8; Ub-ELuc luciferase, Dark [10]: 20.1 relative; Ub-ELuc luciferase, Light [10]: 16.6 relative
